The series in a line: total protein half-life in vivo (active degradation + dilution); higher = more stable protein.
The mark [1] stands for this setting: E. coli NCM3722 delta-clpP delta-lon delta-hslV, growth: N-lim chemostat, doubling time 6 h.
The mark [2] stands for this setting: E. coli NCM3722 delta-clpP, growth: N-lim chemostat, doubling time 6 h.
Setting [3] is: E. coli NCM3722 delta-smpB, growth: N-lim chemostat, doubling time 6 h.
[4] abbreviates: wild type E. coli NCM3722, growth: C-lim chemostat, doubling time 3 h.
Where [5] appears, read: wild type E. coli NCM3722, growth: C-lim chemostat, doubling time 6 h.
Where [6] appears, read: wild type E. coli NCM3722, growth: C-lim chemostat, doubling time 12 h.
Setting [7] is: wild type E. coli NCM3722, growth: N-lim chemostat, doubling time 6 h.
The mark [8] stands for this setting: wild type E. coli NCM3722, growth: N-lim chemostat, doubling time 12 h.
Setting [9] is: wild type E. coli NCM3722, growth: P-lim chemostat, doubling time 6 h.
Where [10] appears, read: wild type E. coli NCM3722, growth: P-lim chemostat, doubling time 12 h.
Setting [11] is: E. coli NCM3722 delta-hslV, growth: N-lim chemostat, doubling time 6 h.
[12] abbreviates: E. coli NCM3722 delta-lon, growth: N-lim chemostat, doubling time 6 h.

± gives the standard deviation of the averaged measurements.

Turning to “MPLPDFRLIRLLPLAALVLTACSVTTPKGPGKSPDSPQWRQHQQDVRNLNQYQTRGAFAYISDQQKVYARFFWQQTGQDRYRLLLTNPLGSTELELNAQPGNVQLVDNKGQRYTADDAEEMIGKLTGMPIPLNSLRQWILGLPGDATDYKLDDQYRLSEITYSQNGKNWKVVYGGYDTKTQPAMPANMELTDGGQRIKLKMDNWIVK”, the “total protein half-life in vivo” value was 5.8 ± 0.1 h under setting [1]; 6.43 ± 0.19 h under setting [2]; 6.06 ± 0.35 h under setting [3]; 3.18 ± 0.06 h under setting [4]; 6.24 ± 0.15 h under setting [5]; 11.8 ± 0.91 h under setting [6]. Moreover, the “total protein half-life in vivo” value reads like this: under setting [7], 6.37 ± 0.46 h; under setting [8], 13.22 ± 0.027 h; under setting [9], 6.17 ± 0.18 h; under setting [10], 13.7 ± 0.68 h.
Consider “MKIKTILTPVTCALLISFSAHAANADNYKNVINRTGAPQYMKDYDYDDHQRFNPFFDLGAWHGHLLPDGPNTMGGFPGVALLTEEYINFMASNFDRLTVWQDGKKVDFTLEAYSIPGALVQKLTAKDVQVEMTLRFATPRTSLLETKITSNKPLDLVWDGELLEKLEAKEGKPLSDKTIAGEYPDYQRKISATRDGLKVTFGKVRATWDLLTSGESEYQVHKSLPVQTEINGNRFTSKAHINGSTTLYTTYSHLLTAQEVSKEQMQIRDILARPAFYLTASQQRWEEYLKKGLTNPDATPEQTRVAVKAIETLNGNWRSPGGAVKFNTVTPSVTGRWFSGNQTWPWDTWKQAFAMAHFNPDIAKENIRAVFSWQIQPGDSVRPQDVGFVPDLIAWNLSPERGGDGGNWNERNTKPSLAAWSVMEVYNVTQDKTWVAEMYPKLVAYHDWWLRNRDHNGNGVPEYGATRDKAHNTESGEMLFTVKKGDKEETQSGLNNYARVVEKGQYDSLEIPAQVAASWESGRDDAAVFGFIDKEQLDKYVANGGKRSDWTVKFAENRSQDGTLLGYSLLQESVDQASYMYSDNHYLAEMATILGKPEEAKRYRQLAQQLADYINTCMFDPTTQFYYDVRIEDKPLANGCAGKPIVERGKGPEGWSPLFNGAATQANADAVVKVMLDPKEFNTFVPLGTAALTNPAFGADIYWRGRVWVDQFWFGLKGMERYGYRDDALKLADTFFRHAKGLTADGPIQENYNPLTGAQQGAPNFSWSAAHLYMLYNDFFRKQ”, for which the “total protein half-life in vivo” value under setting [3] is 6.15 h.
With “MKNQAHPIIVVKRRKAKSHGAAHGSWKIAYADFMTAMMAFFLVMWLISISSPKELIQIAEYFRTPLATAVTGGDRISNSESPIPGGGDDYTQSQGEVNKQPNIEELKKRMEQSRLRKLRGDLDQLIESDPKLRALRPHLKIDLVQEGLRIQIIDSQNRPMFRTGSADVEPYMRDILRAIAPVLNGIPNRISLSGHTDDFPYASGEKGYSNWELSADRANASRRELMVGGLDSGKVLRVVGMAATMRLSDRGPDDAVNRRISLLVLNKQAEQAILHENAESQNEPVSALEKPEVAPQVSVPTMPSAEPR [P0AF06]”, the “total protein half-life in vivo” value was determined as 0.683 ± 0.017 h under setting [4], 1.21 h under setting [5] and 1.33 h under setting [6].
Regarding “MDHLPIFCQLRDRDCLIVGGGDVAERKARLLLDAGARLTVNALAFIPQFTAWADAGMLTLVEGPFDESLLDTCWLAIAATDDDALNQRVSEAAEARRIFCNVVDAPKAASFIMPSIIDRSPLMVAVSSGGTSPVLARLLREKLESLLPLHLGQVAKYAGQLRGRVKQQFATMGERRRFWEKLFVNDRLAQSLANNDQKAITETTEQLINEPLDHRGEVVLVGAGPGDAGLLTLKGLQQIQQADVVVYDRLVSDDIMNLVRRDADRVFVGKRAGYHCVPQEEINQILLREAQKGKRVVRLKGGDPFIFGRGGEELETLCNAGIPFSVVPGITAASGCSAYSGIPLTHRDYAQSVRLITGHLKTGGELDWENLAAEKQTLVFYMGLNQAATIQQKLIEHGMPGEMPVAIVENGTAVTQRVIDGTLTQLGELAQQMNSPSLIIIGRVVGLRDKLNWFSNH [P0AEA8]”, the “total protein half-life in vivo” value worked out at 5.19 ± 0.22 h under setting [1]; 4.33 ± 0.24 h under setting [2]; 4.17 ± 0.56 h under setting [11]; 5.23 ± 0.94 h under setting [12]; 4.7 ± 0.87 h under setting [3]; 3.42 ± 0.48 h under setting [4]. Also, the “total protein half-life in vivo” value under setting [5] is 5.47 ± 0.28 h; the “total protein half-life in vivo” value under setting [6] stood at 10.12 ± 0.019 h; the “total protein half-life in vivo” value under setting [7] is 4.39 ± 0.22 h; the “total protein half-life in vivo” value under setting [8] amounted to 7.57 ± 0.15 h; the “total protein half-life in vivo” value under setting [9] is 6.43 ± 1.1 h; the “total protein half-life in vivo” value under setting [10] was determined as 13.6 ± 2.6 h.
For the sequence “MRSLADFEFNKAPLCEGMILACEAIRRDFPSQDVYDELERLVSLAKEEISQLLPLEEQLEKLIALFYGDWGFKASRGVYRLSDALWLDQVLKNRQGSAVSLGAVLLWVANRLDLPLLPVIFPTQLILRIECPDGEIWLINPFNGESLSEHMLDVWLKGNISPSAELFYEDLDEADNIEVIRKLLDTLKASLMEENQMELALRTSEALLQFNPEDPYEIRDRGLIYAQLDCEHVALNDLSYFVEQCPEDPISEMIRAQINNIAHKHIVLH [P0AGM5]”, the “total protein half-life in vivo” value under setting [4] is 0.281 h.
As for “MRTTIAVVLGAISLTSAFVFADKPDVARSANDEVSTLFFGHDDRVPVNDTTQSPWDAVGQLETASGNLCTATLIAPNLALTAGHCLLTPPKGKADKAVALRFVSNKGLWRYEIHDIEGRVDPTLGKRLKADGDGWIVPPAAAPWDFGLIVLRNPPSGITPLPLFEGDKAALTAALKAAGRKVTQAGYPEDHLDTLYSHQNCEVTGWAQTSVMSHQCDTLPGDSGSPLMLHTDDGWQLIGVQSSAPAAKDRWRADNRAISVTGFRDKLDQLSQK”, the “total protein half-life in vivo” value stood at 5.08 ± 0.47 h under setting [1]; 5.58 ± 0.3 h under setting [2]; 6.26 ± 0.068 h under setting [11]; 5.8 ± 0.71 h under setting [12]; 4.76 ± 0.16 h under setting [3]; 2.07 ± 0.13 h under setting [4]. The “total protein half-life in vivo” value stood at 4.406 ± 0.0069 h under setting [5]; 9.64 ± 2.3 h under setting [6]; 5.29 ± 0.23 h under setting [7]; 10.9 ± 0.45 h under setting [8]; 6.23 ± 0.28 h under setting [9]; 11.4 ± 1.1 h under setting [10].
With “MLRMTPLASAIVALLLGIEAYAAEETFDTHFMIGGMKDQQVANIRLDDNQPLPGQYDIDIYVNKQWRGKYEIIVKDNPQETCLSREVIKRLGINSDNFASGKQCLTFEQLVQGGSYTWDIGVFRLDFSVPQAWVEELESGYVPPENWERGINAFYTSYYLSQYYSDYKASGNNKSTYVRFNSGLNLLGWQLHSDASFSKTNNNPGVWKSNTLYLERGFAQLLGTLRVGDMYTSSDIFDSVRFRGVRLFRDMQMLPNSKQNFTPRVQGIAQSNALVTIEQNGFVVYQKEVPPGPFAITDLQLAGGGADLDVSVKEADGSVTTYLVPYAAVPNMLQPGVSKYDLAAGRSHIEGASKQSDFVQAGYQYGFNNLLTLYGGSMVANNYYAFTLGAGWNTRIGAISVDATKSHSKQDNGDVFDGQSYQIAYNKFVSQTSTRFGLAAWRYSSRDYRTFNDHVWANNKDNYRRDENDVYDIADYYQNDFGRKNSFSANMSQSLPEGWGSVSLSTLWRDYWGRSGSSKDYQLSYSNNLRRISYTLAASQAYDENHHEEKRFNIFISIPFDWGDDVSTPRRQIYMSNSTTFDDQGFASNNTGLSGTVGSRDQFNYGVNLSHQHQGNETTAGANLTWNAPVATVNGSYSQSSTYRQAGASVSGGIVAWSGGVNLANRLSETFAVMNAPGIKDAYVNGQKYRTTNRNGVVIYDGMTPYRENHLMLDVSQSDSEAELRGNRKIAAPYRGAVVLVNFDTDQRKPWFIKALRADGQSLTFGYEVNDIHGHNIGVVGQGSQLFIRTNEVPPSVNVAIDKQQGLSCTITFGKEIDESRNYICQ”, the “total protein half-life in vivo” value under setting [10] was determined as 9.63 h.
“MIISEMQRKLATWAATDPSLRIQRLLRLITQPEWLAEAARITLSSKGAHTPGVDGVNKTMLQARLAVELQILRDELLSGHYQPLPARRVYIPKSNGKLRPLGIPALRDRIVQRAMLMAMEPIWESDFHTLSYGFRPERSVHHAIRTVKLQLTDCGETRGRWVIEGDLSSYFDTVHHRLLMKAVRRRISDARFMTLLWKTIKAGHIDVGLFRAASEGVPQGGVISPLLSNIMLNEFDQYLHERYLSGKARKDRWYWNNSIQRGRSTAVRENWQWKPAVAYCRYADDFVLIVKGTKAQVEAIREECRGVLEGSLKLRLNMDKTKIPHVNDGFIFLGHRLIRKRSRYGEMRVVSTIPQEKARNFAASLTALLWKVRISGEILLG”: the “total protein half-life in vivo” value under setting [1] stood at 4.72 ± 0.55 h.

The values are drawn from the supplement of paper PMC11246515.
